# Test results as given in PMC7897279.
# B1: 40N (nicked 40 bp DNA) (dsDNA)
# DNA 1: GCATGCTCTACTGCTTCGATATCG
# DNA 2: AAGCAGTAGAGCATGC
# DNA 3: GCATGCTCTACTGCTTCGATATCG
# DNA 4: AAGCAGTAGAGCATGC
# modifications: none stated
# Molecular target: DNA-PKcs;Ku70;Ku80 (Homo sapiens (HeLa cells);Homo …, UniProt P78527;P12956;P13010 1-4128;1-609;1-732, ||)
binder,measurement,value
B1,binding result,binds
